Literature values in paper PMC5473928.
Several values for one entry are separate records, joined by “and”; a condition that tells them apart may be missing. Equal values may be shown once.

Target: SOS allosteric site (Homo sapiens) (UniProt Q07889)

Kd: 3.6 µM and 10 µM
Substance: KRas (from UniProt P01116)
